In the nanobody polyreactivity screen of Harvey et al. (2022):

Assay: yeast display, Sf9 membrane polyspecificity reagent, FACS + sequencing; frameworks hold sequencing errors
Procedure, shortened: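 Polyreactivity labels are assigned by the sorting gate from which each nanobody was recovered. The gates were low and high (top ~1%), set on anti-HA fluorescence for expression and streptavidin fluorescence for reagent binding. Before sorting, galactose-induced (36–48 hours) yeast display cells were stained for 1 hour at 4 °C with 10% biotinylated, detergent-solubilized Sf9 membrane reagent.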

Sequence	polyreactivity (PSR sort gate)
QVQLVESVGGLVQAGGSLRLSCAASGSIFASNSMGWYRQETGKEREFVAAITWRTDRTYYADSVKGRFTISRDNAKNTLYFQMNSLKPEDTAVYYFAADTWFYRFYYWGQGTQVTVSS	high polyreactivity
QVQLVESGGGLLQAGGSLRLSCAASGRTFSVNAMGWYRQAPGKERELVATITWSGSSTSYADSVKGRFTISRDNAKNTVDLQMNSLKPEDTAVYYCAADLWTLIYLTDTYGHWGQATQVTVSS	low polyreactivity
QVQLGHSGGGLVQAGGSLRLTCAPSGSIFGYKAMGWYRQAPGKERELVAAISSTGGSTYYADSVKGRFTISRDNAKNTVYLQMNSLKPEDTAVYYCAKQVADRYVYWGQGTQVTVSS	low polyreactivity
QVQLVESGGGLVQAGGSLRLSCAASGFISGSYAMGWYRQAPGKDREFVASISLSDGSTTYADSVKGRFTISRDTAKNPVYLQMNSLKPEDTAVYYCAVQFYYPFTGGTIYEYWGQGTQVTVAS	low polyreactivity
QVQLVESGGGLVQAGGSLRLSCAASGSTFYYYAMGWYRQAPGKERELVAAITNVTSTYYADSVKGRFTISRDNEKNTVYLMMNSLKPEDTAVYYCAAPDHCSEVTYDYWGQGTQVCVSS	low polyreactivity
QVQLEESGGGLVQAGGSLRLSCPASGSIFSWNAMGWYRQSPGKERELVATITWNGGRTYYADSVKGRFTISRDNAKNTVYLQMKSLKPEDTAVYYCAARYYVYWTYPNRVLSYYYWGQRTQVTVSS	high polyreactivity
QVQLVESGGGLVQAGGSLRLSCAASGFTFIYYALGWYRQAPGKERELLATISYDGGSTYYSDSVKGRFTISRDNAKNTVYLQMNSLKPEDTAVYYCNADFADDKYYLFESELEYDYWGQGTQVTVSS	low polyreactivity
QVQLVESGGGLVQAGGSLRLSCAASGFIFTVNAMGWYRQAPGKERELVAAITQSGGNTSYADSVKGRFTISRDNAKNTVYLQMNSLKPEDTAVYYCNASSDTSRYGVSTYYYWGQGTQVTVSS	low polyreactivity
QVQLVESGGGLVQAGGSLRLSCAASGFTFAGYAMGWYRQAPGKERELVAAISWRGGSTYYADSVKGRFTISRDNAKNTVYLQMNSLKPEDTAVYYCAAASRKRTSREPLDYWGQGTQVTVSS	high polyreactivity
QVQLVESGGGLVQAGGSLRLSCAASGFTFVYNAMGWYRQAPGKERELVAAISSSGGRTYYADSVKGRFTISRDNAKNTVYLQMNSLKPEDTAVYYCAVEYPVYYYVEYDYWGQGTQVTVSS	high polyreactivity
QVQLEESGGGLVQAGGSLRLSCAASGSISYNNVMGWYRQAPGKERELVARIRSGGSTYYADSVKGRFTISRDNAKNTVYLLMNSLKQEDTAVYYCAARTKRQAGSYGYWGQGTQVTVSS	high polyreactivity
QVQLVESGGGLVQAGGSLRLSCAASGRTFATYAMGWYRQAPGKERELVAAISSGGSTYYADSVKGRFTISRDNAKNTVYLQMNSLKPEDTAVYYCAVYVDYYGYGYWGQGTQVTVSS	high polyreactivity
QVQLVESGGGLVQAGGSIRLSCAASGSTLQGNAMGWYRQAPGKERELDAAISRSGGSTYADSVKGRFTISRDNAKNTVYLLMNSLKPEDTAVYYCAAYSGVGYLWFVYWGQGTQVTVSS	low polyreactivity
QVHLVESGGGLVQAGGSLRLSCAASGSTFGWYAMGWYRPSPGKERELVAAIRSNGGSTYYADSLKGRFTISRDNAKNTVYLQMNSLKPEDTAVFYCAARGSPSKHHWYDYWGQGTQVTVSS	low polyreactivity
QVQLVESGGGLVQAGGSLRLSCAASGSTFQYYAMGWYRQAPGKEGELVATINSGGSTNYADSVKGRFTISRDNAKNTVYLQMNSLKPEDTAVYYCARRVRYKHYDYWGQGTQVTVSS	high polyreactivity
QVQLVESGGGLVQAGGSLRLSCAASGRTFKGYAMGWYRQAPGKERELVAGISTGGNTNYADSVMGRFTISRDNAKNTVYLQMNSLKPEDTAVYYCNAVYRGFTHYTGYEYWGQGTQVTVSS	high polyreactivity
QVQLVESGGGLVQAGGSLRLSCAASGSIFSINAMGWYRQAPGKERELVAAINGSGGNTYYADSVKGRFTISRDNAKNTVYLQMNSLKPEDTAVYYCAAEGYSYWSFDELDYWGQGTQVTVSS	low polyreactivity
QVQLVESGGGLVHAGGSLRLSCDASGLKFRAYDMGRYRQAPGKERELVAAITSSSGSTYYADSVKGRFTISRDNAKNTVYLQMNSLKPEDTSVYYCNAYSTFGWYDYWGQGTQVTVSS	low polyreactivity
QVQLVESGGGLVQAGGSLRLSCAASGSTFSRYAMGWYRPAPGKERELVAAISRSGGTTYYADSVKGRFTISRDNAKNTVYLQMNSLKPEDTAVYYCNARGRYEYGYWGQGTQVTVSS	high polyreactivity
QVQIVESRGGLVQAGGSLRLSCDASGRTILIYAMGWYRQAPRKERELVAAITSGGRTKYADSVKGRFTISRDNGKNTVFLQMNSQKPEDTAVYYCAAESNRLRYYYWGQGSQVTVSS	high polyreactivity
QVHHVESGFGLVQAGGSLRLSCASSGTFTVNTMGWYRQAPGKERELVAAISTGDTTTYADSVKGRFTISRDNAKNTVYLQMNSLKPEDTAVYYCNVDIGVYAYESDYWGQGTQVTVSS	low polyreactivity
QVQLVESGGGVVQAGGRLRLSCAASGFTFGSNDMGWYRQAPGKETELVAAIDGSGDTYYADSVKGRFTISRDNAKNTVDLQMNSLKPEDTAVYYCAADVIYWFSGEYDYWGQGTQVTVSS	low polyreactivity

Sequence	polyreactivity (PSR sort gate)
QVQLVESGGGLVQAGGSLRLSCAASGRTFRKYAMGWYRQAPGKERELVAAITTSGARTYYADSVKGRFTISRDNAKNTVYLQMNSLKPEDTAVYYCNAVIPYYGIEFDYWGQGTQVTVSS	high polyreactivity
QVQLVESGGCLVQAGGSLRLSCAASGSTFTPYVMGWYRHAPGKERELVAAISKRGGSTYYADSVKGRFTISRDNAKNTVYLQMNRLKPEDTAVYYCAAVQPAWGNGYWGQGTQVTVSS	high polyreactivity
QVQLVESGGGLVQAGGSLRLSCAASGSIFVLNAMGWYRQAPGQERELVAAITNVGSTYYADSVKGRFTISRDNAKNTVYLQMNSLKPEDTAVYYCAAVLPFKYDYWGQGTQVTVSS	low polyreactivity
QVQLVESGGGLVQAGGSLRLSCAASGLTFGSYAMGWYRQAPGKERELVAAISSRGGTTYYADSVKGRFTISRDNAKNTVYLQMNSLKPEDTAVYYCAARSRRYSYDNLGHWGQGTQVTVSS	high polyreactivity
QVQLVESGGGLVQAGGSLRLSCAASGRTLPFYAMGWYRQAPGKERELLAAINRSGGSTYYADSVKGRFTISRDNAKNTVSLQMNILKPEDTAVYYGNNVTVPGLGYYPPSYSNGHWGQGTQVSVSS	high polyreactivity
QVQLVESGGGLVQAGGSLRLSCAASGSTFDDNVMGWYRQAPGKERELVASSTSGGGTNYADSVKGRFTISRDNAKNTVYLQMKSLKPEDTAVYYCAARTQGRRLDYGYWGQGTQVTVSS	low polyreactivity
PVQLVESGGVLVQAGGILRLSCAASGFTFYLYGMGWYRRAPGKERELVAAISRSGGSTYYADSVKGRFTISRDNAKNTVYLQMNSLKPEDPAVYACAVDKQGSRRRIISDEMYYWGQGTQVTVSS	high polyreactivity
QVQLVESGGGLVQAGGSLRLSCAASGRTFLVYAMGWYRQAPGKERDLVAAITGSGTSTYYADSVKRRFTISRDNGKNTVYLQMNSLKAEDTAVYYCAAEVRLGTYGYDYDYWGQGTQVTVSS	high polyreactivity
QVQLVESGGGLVQAGGSLRLSCAASGSIFVAYEMGWYRPAPGKERELVAAIDSVGRTNYADSVKGRFTISRDNAKNTDYLQMNSLKRVDTSVYSCNADQYYSFYDPDDYWGQGTQVTVSS	low polyreactivity
QVQLVESGGGLVQAGGSLRLSCAASGRTFDRNAMGWYRQAPGKERELVAAITSSGDSTYYADSVKGRFTISRDNSKNTVYLQMNSLKPEDTAVYYCAAGRRFGYWGQGTQVNVSS	high polyreactivity
QVQLVESGGGLDQAGGSLRLSCAASGRTFTEYAMGWYRQAPGKERELVARISIGDSTYYADSVKGRFTISRDNAKNTDYLQMNSLKPEDTAVYYCNAEYSRSYRYDEGYWGQGTQVTVSS	low polyreactivity
QVQLVESGGGLVQAGGSLRLICAASGSTFAYNDMGWYRQAPGTERELVADIRSGGNTNYADSVKGRFTISRDNAKNTVYLQMNSLKPEDTAVYYCATDGYRIDVYHPDYRYDYWGQGTQVTVSS	low polyreactivity
QVQLVESGGGLVQAGGSLRLSCAASGSIFGDYAMGWYRQAPGTDRELVATITWIGGSTYYADSVKGRFTISRDNAKNTVYCQMNSLKPEDTAVYYCAATKYVDVKYYYWGQGTQVTVSS	low polyreactivity
QVKLVESAGGLVQAGGSHRLSCAASARIFRGNTRGWYRQAPGKEREVVARITWNGGTTNYADSVKGRFTISRDYAKNTVSLQMNSLKPVDTAVYYCAKGSLRQITGILSWYYYWRQGTQVTVSS	high polyreactivity
QVQLVESGGGLVQAGGSLRLSCAASGNIFDSYAMGWYRQAPGKERELVAAISFSGGNTYYADSVKGRFTISRDNAKNTVYLQMNSLKPEDTAVYYCAADYFAVTPYRAADVAEDYWGQGTQVTVSS	low polyreactivity
QVQLVESGGGLVQEGGSLRLICAASGSTFYDYAMGWYRQAPGKERELVAAINWSSDTTYYADSVKGRFTISRDNAKNTVYLQMNSMKPEDTAVYYCATDSAYRGYDYWGQGTQVTVSS	low polyreactivity
QVQLVESGGGLVQAGGSLRLSCAASGSIFSFYAMGWYRQAPGKERELVADITWSGGRTYYADSVKGRFTISRDNAKNTVYLQMNSLKPEDTAVYYCNTELYLSRYKYVWSFDYWGQGTQVTVSS	low polyreactivity
QVQLVESGGGLVQAGGSLRLSCAASGSTLSHYAMGWYRQAPGKERELVAAINSNGGSTYYADSVKGRFTISRDNAKNTVYLQMNSLKPEDTAVYYCNTYFRYFSFYGRPFDYWGQGTQVTVSS	high polyreactivity
QVQLVESGGGLVQEGGSLRLSCAASGSIFPYYAMGWYRQAPGKERELVAAISSAGSTNYADSVKGRFTISRDNAKNTVYLQMNSLKPEDTAVYYCAADLFYREFDYWGQGTQVTVSS	low polyreactivity
QVQLVESGGGLVQAGGSLRLSCAASGSIFGGYAMGWYRQAPGKERELVAAISSGGSTYYADSVKGRFTISRDNAKNTVYLQMNSLKPEDTAVYYCATSTYAYRRNSYYYTRPRFGYWGQGTQVTVSS	high polyreactivity
QVQLQGSGAGLVQAGGSLRLSCAPSGYILQNVPMGWNRQAPGKERELVAGIDNGTSTNYADSVNGSFTISRDNAKNTVYLQMNSLKPEDTAVYYCAAAGQADETLGYWGQGTQVTVSR	low polyreactivity
